Results as given in patent US7135326B2, “UDP-glucosyltransferases” (E. I. du Pont de Nemours and Company, priority 2002, dated 2006).

Key:
Grape GT = experiment: Substrate specificity of the purified recombinant Grape GT, HPLC analysis of glucose ester formation; type: biochemical, Vitis sp.; details: relative to pHBA = 100, 10 mM test substrate, 0.0467 μM purified Grape GT, 15 min, 25° C.
Experimental: To rule out the possibility that the Grape GT can also attach glucose to the hydroxyl group of pHBA, the products of the in vitro enzyme reaction were directly analyzed by reverse phase HPLC. […] Following a 1-min incubation period at 25° C., the reactions were terminated by the addition of an equal volume of 0.2 N HCl. […] The column was developed at 1 mL/min with a linear gradient of 10–50% Buffer B that was generated over a 20-min period, and absorbance was monitored at 254 nm. […] To test this hypothesis, Applicants' decided to examine the substrate specificity of the Grape GT in greater detail. […] Following a 15-min incubation period at 25° C., the reactions were quenched with an equal volume of 0.3 M HCl and the entire reaction mixture was analyzed by HPLC as described above in Example 6. The products of the various reactions were identified using authentic chemical standards. The retention times and extinction coefficients of these compounds were determined using the same column conditions. […] Regardless of substrate, the purified recombinant Grape GT only catalyzed the formation of glucose esters, which in all cases co-migrated precisely with the authentic compounds. […] Since the glucose ester of the latter compound is the precursor for the synthesis of simple and complex tannins that are extremely abundant in grapes, it is possible that gallic acid is a physiological substrate of the Grape GT. The data shown in Table 3 make it clear that although the Grape GT glucosylated mHBA (3-hydroxybenzoic […]) at a reasonable rate, product formation with oHBA (2-hydroxybenzoic acid) was not observed.

[1] = Continuous spectrophotometric UDP-glucosyltransferase assay, formation of pHBA glucose ester at 304 nm, E. coli cell-free extracts; type: biochemical; details: crude extract, 10 mM UDP-glucose, pH 7.3, 25° C.
Experimental: (§1) For protein production, the resulting recombinant strains were grown at 22° C. in 50 mL of LB media that contained kanamycin (50 μg/mL). At an A600 nm of ˜0.6, isopropyl-1-thio-β-D-galactopyranoside was added to a final concentration of 0.2 mM. Following a 22-h induction period at the same temperature, the cells were harvested by centrifugation and stored at −80° C. for subsequent manipulation as described below.
(§2) The frozen cell pellets were resuspended in 1.0 mL of a solution containing 100 mM Tris-HCl (pH 7.7), 5 mM MgSO4, 1 mM dithiothreitol, 0.03 mg/mL DNAse I, 0.5 mM phenylmethanesulfonyl fluoride, and passed once through a French pressure cell at 20,000 psi. Debris was removed by centrifugation (43,000×g, 60 min), and the resulting cell-free extracts, containing ˜15 mg of protein per mL, were supplemented with 5% glycerol and stored at −80° C. for subsequent measurements of enzyme activities. Protein concentrations were determined by the Bradford Method using bovine serum albumin as a standard.

[2] = Continuous spectrophotometric UDP-glucosyltransferase assay, formation of glucose ester of sinapic acid at 368 nm, E. coli cell-free extracts; type: biochemical; details: crude extract, 10 mM UDP-glucose, pH 7.3, 25° C.; for initial rate of product formation, 1 mM SA: 1 mM sinapic acid; for initial rate of product formation, 5 mM SA: 5 mM sinapic acid; for initial rate of product formation, 10 mM SA: 10 mM sinapic acid
Experimental: as §1, §2
(§3) The second assay is based on the increase in absorbance at 368 nm that accompanies the formation of the glucose ester of sinapic acid. The experimental conditions were the same as those described above, but the test substrate was sinapic acid and product formation was calculated using an extinction coefficient of 5,570 M^−1 that was obtained with the authentic chemically synthesized compound under identical conditions.

[3] = Ratio of enzyme activity with pHBA versus sinapic acid (spectrophotometric assays); type: biochemical; details: for times more active with sinapic acid than pHBA / pHBA/SA ratio of enzyme activity: crude extract; for Ratio of Activity pHBA/SA: Table 4, cell-free extracts, 10 mM pHBA or sinapic acid, 25° C.; for rate of pHBA glucosylation relative to sinapic acid: cell-free extract
Experimental: as §3

## O=C(O)/C=C/c1ccc(O)c(O)c1 [Caffeic acid, caffeic acid]
Grape GT
  Relative Rate of product formation: 25

B1: GT 3: Arabidopsis UDP-glucosyltransferase, GenBank AL161541.2, SEQ ID NO:8 (protein, listed as Arabidopsis thaliana)
chain: MMFETCPSPNPIHVMLVSFQGQGHVNPLLRLGKLIASKGLLVTFVTTELWGKKMRQANKIVDGELKPVGSGSIRFEFFDEEWAEDDDRRADFSLYIAHLESVGIREVSKLVRRYEEANEPVSCLINNPFIPWVCHVAEEFNIPCAVLWVQSCACFSAYYHYQDGSVSFPTETEPELDVKLPCVPVLKNDEIPSFLHPSSRFTGFRQAILGQFKNLSKSFCVLIDSFDSLEQEVIDYMSSLCPVKTVGPLFKVARTVTSDVSGDICKSTDKCLEWLDSRPKSSVVYISFGTVAYLKQEQIEEIAHGVLKSGLSFLWVIRPPPHDLKVETHVLPQELKESSAKGKGMIVDWCPQEQVLSHPSVACFVTHCGWNSTMESLSSGVPVVCCPQWGDQVTDAVYLIDVFKTGVRLGRGATEERVVPREEVAEKLLEATVGEKAEELRKNALKWKAEAEAAVAPGGSSDKNFREFVEKLGAGVTKTKDNGY
[1]
  initial rate of product formation, 1 mM pHBA: 9.4 μM per min
  initial rate of product formation, 5 mM pHBA: 42.3 μM per min
  initial rate of product formation, 10 mM pHBA: 64.9 μM per min
[2]
  initial rate of product formation, 1 mM SA: 146 μM per min
  initial rate of product formation, 5 mM SA: 158 μM per min
  initial rate of product formation, 10 mM SA: 143 μM per min
[3]; 10 mM substrate
  times more active with sinapic acid than pHBA: only about twice as active
  pHBA/SA ratio of enzyme activity: 0.454
[3]
  Ratio of Activity pHBA/SA: 0.454
[3]; 1 mM substrate
  pHBA/SA ratio of enzyme activity: 0.064
[3]; 5 mM substrate
  pHBA/SA ratio of enzyme activity: 0.268

B2: GT 5: Arabidopsis UDP-glucosyltransferase, GenBank AL161541.2, SEQ ID NO:16 (protein, listed as Arabidopsis thaliana)
chain: MKMESSLPHVMLVSFPGQGHISPLLRLGKIIASKGLIVTFVTTEEPLGKKMRQANNIQDGVLKPVGLGFLRFEFFEDGFVYKEDFDLLQKSLEVSGKREIKNLVKKYEKQPVRCLINNAFVPWVCDIAEELQIPSAVLWVQSCACLAAYYYYHHQLVKFPTETEPEITVDVPFKPLTLKHDEIPSFLHPSSPLSSIGGTILEQIKRLHKPFSVLIETFQELEKDTIDHMSQLCPQVNFNPIGPLFTMAKTIRSDIKGDISKPDSDCIEWLDSREPSSVVYISFGTLAFLKQNQIDEIAHGILNSGLSCLWVLRPPLEGLAIEPHVLPLELEEKGKIVEWCQQEKVLAHPAVACFLSHCGWNSTMEALTSGVPVICFPQWGDQVTNAVYMIDVFKTGLRLSRGASDERIVPREEVAERLLEATVGEKAVELRENARRWKEEAESAVAYGGTSERNFQEFVDKLVDVKTMTNINNVV
[1]
  initial rate of product formation, 1 mM pHBA: 0.23 μM per min
  initial rate of product formation, 5 mM pHBA: 0.45 μM per min
  initial rate of product formation, 10 mM pHBA: 0.83 μM per min
[2]
  initial rate of product formation, 1 mM SA: 5.18 μM per min
  initial rate of product formation, 5 mM SA: 9.2 μM per min
  initial rate of product formation, 10 mM SA: 5.9 μM per min
[3]
  Ratio of Activity pHBA/SA: 0.141
[3]; 1 mM substrate
  pHBA/SA ratio of enzyme activity: 0.044
[3]; 5 mM substrate
  pHBA/SA ratio of enzyme activity: 0.049
[3]; 10 mM substrate
  pHBA/SA ratio of enzyme activity: 0.141

B3: Citrus GT: Citrus mitis UDP-glucosyltransferase, SEQ ID NO:31 (protein, listed as Citrus mitis)
chain: MGTESLVHVLLVSFPGHGHVNPLLRLGRLLASKGFFLTLTTPESFGKQMRKAGNFTYEPTPVGDGFIRFEFFEDGWDEDDPGRRDLDQYMAQLELIGKQVIPKIIKKSAEEYRPVSCLINNPFIPWVSDVAESLGLPSAMLWVQSCACFAAYYHYFHGLVPFPSEKEPEIDVQLPCMPLLKHDEVPSFLHPSTPYPFLRRAILGQYENLGKPFCILLDTFYELEKEIIDYMAKICPIKPVGPLFKNPKAPTLTVRDDCMKPDECIDWLDKKPPSSVVYISFGTVVYLKQEQVEEIGYALLNSGISFLWVMKPPPEDSGVKIVDLPDGFLEKVGDKGKVVQWSPQEKVLAHPSVACFVTHCGWNSTMESLASGVPVITFPQWGDQVTDAMYLCDVFKTGLRLCRGEAENRIISRDEVEKCLLEATAGPKAAELKESALKWKQEAEEAVADGGSSDRNIQAFVDEVRRRSVGIITSSKSKSIHRVKELVEKTATATANDKVELVES
[3]; 10 mM substrate concentration
  substrate preference for pHBA over sinapic acid: 4.88 fold
[3]; 10 mM substrate
  rate of pHBA glucosylation relative to sinapic acid: at least six times faster
[3]
  Ratio of Activity pHBA/SA: 6.35

B4: GT 4: Arabidopsis UDP-glucosyltransferase, GenBank AL161541, SEQ ID NO:12 (protein, listed as Arabidopsis thaliana)
chain: MNPSRHTHVMLVSFPGQGHVNPLLRLGKLIASKGLLVTFVTTEKPWGKKMRQANKIQDGVLKPVGLGFIRFEFFSDGFADDDEKRFDFDAFRPHLEAVGKQEIKNLVKRYNKEPVTCLINNAFVPWVCDVAEELHIPSAVLWVQSCACLTAYYYYHHRLVKFPTKTEPDISVEIPCLPLLKHDEIPSFLHPSSPYTAFGDIILDQLKRFENHKSFYLFIDTFRELEKDIMDHMSQLCPQAIISPVGPLFKMAQTLSSDVKGDISEPASDCMEWLDSREPSSVVYISFGTIANLKQEQMEEIAHGVLSSGLSVLWVVRPPMEGTFVEPHVLPRELEEKGKIVEWCPQERVLAHPAIACFLSHCGWNSTMEALTAGVPVVCFPQWGDQVTDAVYLADVFKTGVRLGRGAAEEMIVSREVVAEKLLEATVGEKAVELRENARRWKAEAEAAVADGGSSDMNFKEFVDKLVTKHVTREDNGEH
[3]; 10 mM substrate
  times more active with sinapic acid than pHBA: at least 80 times

B5: SA-GT: Brassica napus UDP-glucosyltransferase (GenBank Accession No. AF287143), SEQ ID NO:4 (protein, listed as Brassica napus)
chain: MELSSSPLPPHVMLLSFPGQGHVNPLLRLGKLLASKGLLVTFVTTESWGKKMRTANKIQDRALKPIGKGYLRFDFFDDGLPEDDDASRTNLTILRPQLELVGQQEIKNLVKRYKEVMKQPVTCLINNPFVSWVCDVAEDLQIPCAVLWVQSCACLASYYYYHHKLVDFPTETDPKIDVQIPCMPVLKHDEIPSFIHPFSPYSGLREVIIDQIKRLHKPFVVLIDTFYSLEKDIIDHMTNLSRTGVVRPLGPLYKMAKTLICDDIKGDMSETRDDCMEWLDSQPVSSVVYISFGTMAYVTQEQISEIAFGVLNAGVSFLWVIRQQELGVNKERHVLPEELKGKGKVVEWCSQEKVLAHPSVVCFVTHCGWNSTMEALSSGVPTVCFPQWGDQVTDAAYMSDVFKTGVRLSRGETEERVVPREEVAERLREVTKGEKATELKKNALKWKEEAEAAVARRGSSDRNLDEFVEKLCVKHVAKQNGSLNQNGSIQKLLLQKS
[1]
  initial rate of product formation, 1 mM pHBA: 0.20 μM per min
  initial rate of product formation, 5 mM pHBA: 0.59 μM per min
  initial rate of product formation, 10 mM pHBA: 1.03 μM per min
[2]
  initial rate of product formation, 1 mM SA: 118 μM per min
  initial rate of product formation, 5 mM SA: 82 μM per min
  initial rate of product formation, 10 mM SA: 55.6 μM per min
[3]; 10 mM substrate
  times more active with sinapic acid than pHBA: at least 50 times
  pHBA/SA ratio of enzyme activity: 0.018
[3]
  Ratio of Activity pHBA/SA: 0.018
[3]; 1 mM substrate
  pHBA/SA ratio of enzyme activity: 0.002
[3]; 5 mM substrate
  pHBA/SA ratio of enzyme activity: 0.007

B6: Eucalyptus GT: Eucalyptus grandis UDP-glucosyltransferase, SEQ ID NO:22 (protein, listed as Eucalyptus grandis)
chain: MGSEALVHVLLVSFPGQGHVNPLLRLGKRLASKGLLVTFTTPESIGKAMRKASNIGEELSPVGDGFIRFEFFEDGWDEDEIRRQDLDQYLPQLEKVGKVLIPEMIRRNAEQGRPISCLINNPFIPWVSDVADSLGLPSAMLWVQSCACFTSYYYYYHGLVPFPSETAMEIDVQLPCMPLLKHDEVPSFLYPTTPYPFLRRAIMGQYKNLDKPFCILMDTFQELEHEIIEYMSKISPIKTVGPLFKNPKAPNATVKGDFMKADDCVGWLDSKPASSIVYVSFGSVVYLKQDQWDEIAYGLLNSGVNFLWVMKPPHKDSGYEVLKMPEGFLEKAGDRGKVVQWSPQEQVLAHPSVACFVTHCGWNSTMEALTSGMPVVAFPQWGDQVTDAKYLVDVFKVGVRMCRGEAENKLITRDVVEQCLREATSGPKAEEMKQNAMKWSAAAEAAVAEGGSSDRNIQAFVDEVKRRSLEVLAASGKSTANGGADLANKVAANGVAELGEPKVNGELKVVS
[3]; 10 mM substrate
  rate of pHBA glucosylation relative to sinapic acid: over an order of magnitude greater
[3]
  Ratio of Activity pHBA/SA: 13.2
